This is an account of results in paper PMC7990337, “Architecture and mechanism of metazoan retromer:SNX3 tubular coat assembly” (Science Advances, 2021).

For this test, the target named is zebrafish VPS26 (zebrafish, UniProt Q6TNP8 1-327). Briefly: cryo-EM structure; cryo-electron tomography with subtomogram averaging of coats reconstituted on PI(3)P- and DGS-Ni-NTA-containing liposomes: 2.5 uM core trimer, 3.5x molar excess of adaptor (SNX3 or Grd19) and the corresponding His-tagged cargo peptide (Wls or Kex2), liposomes 0.16 mg/ml, 4 hours at 22°C in buffer A (20 mM Hepes-KOH pH 7.5, 200 mM NaCl, 1 mM TCEP). To be noted: both partners purified.

B1: His6Wls (peptide, UniProt Q6DID7 493-541, looked up)
chain: APSHKNYGEDQSNGDLGVHSGEELQLTTTITHVDGPTEIYKLTRKEAQE
notes: Wntless (Wls), residues 493 to 541 (C-terminal domain), UniProt Q6DID7; Cloned in pRSFDuet-1; attached to the liposome membrane (liposomes contain DGS-Ni-NTA); also called Wntless cargo peptide; Wls cargo tail peptide; source: E. coli BL21(DE3), purified (Ni-NTA, Superdex Peptide 10/300)
Take B1: the binding result is “binds”.
